Laboratory results published in publication doi:10.1101/2023.10.24.563787 (bioRxiv, 2023).

Biological target: the molecule itself
Assay: cryo-EM structure

B1: 3xFLAG-Lip1, small regulatory subunit of the yeast ceramide synthase (CerS) complex (natural protein, S. cerevisiae)
chain: PKIFNLFRVCFISLLLIAAVEYFKYGTRINYEWFHCTPIKEPQSGSVIKLWARGGPSCDKRGEYKTIVKRITRDYEPNDEHLSFCIIENDNVPPVHYPIHEDKGEPGYVAYVGYDTDSELVQELCADSTIYHM
Q: B1 was tested. Which “stoichiometry N” value did it give?
A: 2
